US20230220589A1

Assays:
[1] = target: M44-modified T NTAA target peptides; experiment: encoding assay; P2 P
[2] = target: M44-modified G NTAA target peptides (M44-G-P2-peptide); experiment: encoding assay; P2 P
[3] = target: M44-modified V NTAA target peptides; experiment: encoding assay; P2 P
[4] = target: M44-modified W NTAA target peptides; experiment: encoding assay; P2 P
[5] = target: M44-modified P NTAA target peptides; experiment: encoding assay; P2 P
[6] = target: M44-modified P NTAA target peptides; experiment: encoding assay; P2 I
[7] = target: M17-modified N NTAA target peptides; experiment: encoding assay; P2 P
[8] = target: M17-modified F NTAA target peptides; experiment: encoding assay; P2 P
[9] = target: M17-modified D NTAA target peptides; experiment: encoding assay; P2 P
[10] = target: M17-modified W NTAA target peptides; experiment: encoding assay; P2 P
[11] = target: M17-modified L NTAA target peptides; experiment: encoding assay; P2 P
[12] = target: M17-modified M NTAA target peptides; experiment: encoding assay; P2 P
[13] = target: M17-modified P NTAA target peptides; experiment: encoding assay; P2 P
[14] = target: M17-modified V NTAA target peptides; experiment: encoding assay; P2 P
[15] = target: M17-modified T NTAA target peptides; experiment: encoding assay; P2 P
[16] = target: M17-modified G NTAA target peptides; experiment: encoding assay; P2 P
[17] = target: M17-modified H NTAA target peptides; experiment: encoding assay; P2 P
[18] = target: M17-modified Q NTAA target peptides; experiment: encoding assay; P2 P
[19] = target: M17-modified S NTAA target peptides; experiment: encoding assay; P2 P
[20] = target: M17-modified A NTAA target peptides; experiment: encoding assay; P2 P
[21] = target: M17-modified Y NTAA target peptides (M17-Y-P2-peptide); experiment: encoding assay; P2 P
[22] = target: M17-modified I NTAA target peptides; experiment: encoding assay; P2 P
[23] = target: M17-modified E NTAA target peptides; experiment: encoding assay; P2 P
[24] = target: M17-modified N NTAA target peptides; experiment: encoding assay; P2 E
[25] = target: M17-modified F NTAA target peptides; experiment: encoding assay; P2 E
[26] = target: M17-modified D NTAA target peptides; experiment: encoding assay; P2 E
[27] = target: M17-modified W NTAA target peptides; experiment: encoding assay; P2 E
[28] = target: M17-modified L NTAA target peptides; experiment: encoding assay; P2 E
[29] = target: M17-modified M NTAA target peptides; experiment: encoding assay; P2 E
[30] = target: M17-modified P NTAA target peptides; experiment: encoding assay; P2 E
[31] = target: M17-modified V NTAA target peptides; experiment: encoding assay; P2 E
[32] = target: M17-modified G NTAA target peptides; experiment: encoding assay; P2 E
[33] = target: M17-modified H NTAA target peptides; experiment: encoding assay; P2 E
[34] = target: M17-modified Q NTAA target peptides; experiment: encoding assay; P2 E
[35] = target: M17-modified Y NTAA target peptides (M17-Y-P2-peptide); experiment: encoding assay; P2 E
[36] = target: M17-modified I NTAA target peptides; experiment: encoding assay; P2 E
[37] = target: M17-modified E NTAA target peptides; experiment: encoding assay; P2 E
[38] = target: M17-modified N NTAA target peptides; experiment: encoding assay; P2 I
[39] = target: M17-modified F NTAA target peptides; experiment: encoding assay; P2 I
[40] = target: M17-modified D NTAA target peptides; experiment: encoding assay; P2 I
[41] = target: M17-modified W NTAA target peptides; experiment: encoding assay; P2 I
[42] = target: M17-modified L NTAA target peptides; experiment: encoding assay; P2 I
[43] = target: M17-modified M NTAA target peptides; experiment: encoding assay; P2 I
[44] = target: M17-modified P NTAA target peptides; experiment: encoding assay; P2 I
[45] = target: M17-modified V NTAA target peptides; experiment: encoding assay; P2 I
[46] = target: M17-modified T NTAA target peptides; experiment: encoding assay; P2 I
[47] = target: M17-modified G NTAA target peptides; experiment: encoding assay; P2 I
[48] = target: M17-modified H NTAA target peptides; experiment: encoding assay; P2 I
[49] = target: M17-modified Q NTAA target peptides; experiment: encoding assay; P2 I
[50] = target: M17-modified S NTAA target peptides; experiment: encoding assay; P2 I
[51] = target: M17-modified A NTAA target peptides; experiment: encoding assay; P2 I
[52] = target: M17-modified Y NTAA target peptides (M17-Y-P2-peptide); experiment: encoding assay; P2 I
[53] = target: M17-modified I NTAA target peptides; experiment: encoding assay; P2 I
[54] = target: M17-modified E NTAA target peptides; experiment: encoding assay; P2 I
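Note: fraction of recording tags encoded.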

B1: engineered M44-L binder (SEQ ID NO: 31) (designed binder, not shown: small tags and cut ends; large carriers)
chain: QDSTQNLIPAPPLISVPLQPGFWTERFQGRWFLVGFAGNAVQKERQSRLTMQSLILELQEDNSYNITAINVRGQGCRYIISTLVPSSRPGQFTLGNIHSYPQIQSLDVQVADTDYDQFAMVFLQGTSENKQYFEVALAGRTKGLSDELKERFVSFAKSLGLKDNNIVFSVPTDQCIDN
In the case of B1, the encoding yield [1] is reported as 0.01, the encoding yield [2] is reported as 0.01 and the encoding yield [3] is reported as 0.02. It also gave an encoding yield [4] of 0.04, an encoding yield [5] of 0.01 and an encoding yield [6] of 0.01.

B2: engineered M17-Y binder (SEQ ID NO: 61) (designed binder, not shown: small tags and cut ends; large carriers)
chain: TVPDRSEIAGKWYVVALASNTEFYLREKDWVKSAMARISFLGEDELKVSSAVPSPNGCYKVERTWKKTSDDGEVYNSRAAKLKVEVLDTDYKSYAVIYATRVKDGRTDHQMILYSRSPEVSPAATAIFRKLAGERNYTDEMVAMLPRQEECTVDEV
B2 was tested, and the encoding yield [7] was 0.01, the encoding yield [8] was 0.12 and the encoding yield [9] was 0.02. It also gave an encoding yield [10] of 0.02, an encoding yield [11] of 0.05 and an encoding yield [12] of 0.03. For the same binder, the encoding yield [13] was 0.01, the encoding yield [14] was 0.02 and the encoding yield [15] was 0.01. It also gave an encoding yield [16] of 0.01, an encoding yield [17] of 0.03 and an encoding yield [18] of 0.02. For the same binder, the encoding yield [19] was 0.02, the encoding yield [20] was 0.02 and the encoding yield [21] was 0.16. It also gave an encoding yield [22] of 0.06, an encoding yield [23] of 0.02 and an encoding yield [24] of 0.01. It also gave an encoding yield [25] of 0.01, an encoding yield [26] of 0.02 and an encoding yield [27] of 0.03. For the same binder, the encoding yield [28] was 0.02, the encoding yield [29] was 0.01 and the encoding yield [30] was 0.02. The encoding yield [31] was 0.02, the encoding yield [32] was 0.01 and the encoding yield [33] was 0.02. It also gave an encoding yield [34] of 0.02, an encoding yield [35] of 0.07 and an encoding yield [36] of 0.01. The encoding yield [37] was 0.02, the encoding yield [38] was 0.03 and the encoding yield [39] was 0.03. The encoding yield [40] was 0.02, the encoding yield [41] was 0.02 and the encoding yield [42] was 0.02. For the same binder, the encoding yield [43] was 0.01, the encoding yield [44] was 0.01 and the encoding yield [45] was 0.03. It also gave an encoding yield [46] of 0.01, an encoding yield [47] of 0.01 and an encoding yield [48] of 0.04. For the same binder, the encoding yield [49] was 0.02, the encoding yield [50] was 0.01 and the encoding yield [51] was 0.02. The encoding yield [52] was 0.17, the encoding yield [53] was 0.05 and the encoding yield [54] was 0.03.

B3: upgraded binder after additional maturation round (SEQ ID NO: 62) (designed binder, not shown: small tags and cut ends; large carriers)
chain: TVPDRSEIAGKWYVVALASNTEFYLRGKDRVKSAMVRISFQGEDELKVSSAVPSPNGCYKVERTWKKTSDDGEVYNSRAAKLKVEVLDTDYKSYAVIYATRVKDRRTDHQMILYSRSPDVSPAATAIFRKLAGERNYTDEMVAMLPRQEECTVDEV
For B3, the encoding yield [7] was 0.02, the encoding yield [8] was 0.12 and the encoding yield [9] was 0.03. The encoding yield [10] was 0.11, the encoding yield [11] was 0.08 and the encoding yield [12] was 0.03. It also gave an encoding yield [13] of 0.01, an encoding yield [14] of 0.03 and an encoding yield [15] of 0.02. It also gave an encoding yield [16] of 0.02, an encoding yield [17] of 0.04 and an encoding yield [18] of 0.02. It also gave an encoding yield [19] of 0.04, an encoding yield [20] of 0.02 and an encoding yield [21] of 0.28. It also gave an encoding yield [22] of 0.07, an encoding yield [23] of 0.02 and an encoding yield [24] of 0.02. For the same binder, the encoding yield [25] was 0.02, the encoding yield [26] was 0.02 and the encoding yield [27] was 0.06. The encoding yield [28] was 0.02, the encoding yield [29] was 0.01 and the encoding yield [30] was 0.04. The encoding yield [31] was 0.03, the encoding yield [32] was 0.02 and the encoding yield [33] was 0.02. The encoding yield [34] was 0.03, the encoding yield [35] was 0.16 and the encoding yield [36] was 0.02. The encoding yield [37] was 0.03, the encoding yield [38] was 0.03 and the encoding yield [39] was 0.05. It also gave an encoding yield [40] of 0.02, an encoding yield [41] of 0.04 and an encoding yield [42] of 0.05. It also gave an encoding yield [43] of 0.02, an encoding yield [44] of 0.01 and an encoding yield [45] of 0.05. For the same binder, the encoding yield [46] was 0.02, the encoding yield [47] was 0.02 and the encoding yield [48] was 0.04. It also gave an encoding yield [49] of 0.03, an encoding yield [50] of 0.02 and an encoding yield [51] of 0.03. It also gave an encoding yield [52] of 0.31, an encoding yield [53] of 0.08 and an encoding yield [54] of 0.03.

B4: engineered M44-A binder (SEQ ID NO: 42) (designed binder, not shown: small tags and cut ends; large carriers)
chain: QVSVQPNFQQDKFLGRWFVAGLASNSSWDREKVAALSGAKMVVAPATDGGLNVTRTMLRKNQCETYTGLLQPAGSLGSYSWRSPHPGSTGSESVVETDYDQYALVYGQGSKGPGEDLRAAALWSRTQTPRAELKEKFTAFSKAQGFTEDTIVFLPQTDKCMTEQ
Binder B4 has an encoding yield [1] of 0.01, an encoding yield [2] of 0.01 and an encoding yield [3] of 0.01. For the same binder, the encoding yield [4] was 0.01, the encoding yield [5] was 0.01 and the encoding yield [6] was 0.01.
